Measurements reported in patent US20260209294A1, “USE OF RECOMBINANT PROTEIN IN PREPARING DRUG FOR INHIBITING ANEURYSM” (HUAZHONG UNIVERSITY OF SCIENCE AND TECHNOLOGY, priority 2022, published 2026).

Tested on: TAC-induced mouse aneurysm model
Assay: TAC (transverse aortic constriction)-induced aneurysm model, i.p. recombinant AGGF1 or AGGF1-RDDdel protein
Assay type: in vivo, C57BL/6 mice
Text: RCAs are harvested after 21 days for the histological staining. […] The bar graphs at the bottom show the intima thickness (1st graph), the adventitia thickness (2nd graph), the total arterial wall thickness (3rd graph), a media cell density (4th graph), and the adventitia cell density (5th graph). […] The bar graphs on the right show the percentage of the collagen area and the percentage of the α-SMA positive area. * P<0.05; **, P<0.01; ***, P<0.001; a mouse sample size n=6/group.
RCAs are harvested after 21 days for the histological staining and the western blot analysis. […] Bar graphs below show the percentage of the MCP1-positive cell area and the CD68-positive cell area. […] The β-actin serves as a loading control. […] The β-actin serves as a loading control. *, P<0.05; **, P<0.01; *** P<0.001; a mouse sample size n=6/group, other sample sizes n=4/group.
The bar graph on the right illustrates the luminal diameter of the ascending aorta. An ascending aortic tissue is harvested after 21 days for the histological staining. […] The bar graphs below display the intimal thickness (1st graph), the adventitia thickness (2nd graph), the total arterial wall thickness (3rd graph), the medial cell density (4th graph), and the adventitia cell density (5th graph). *, P<0.05; **, P<0.01; ***, P<0.001; a mouse sample size n=6/group.
The ascending aortic tissue is harvested for the histological staining 21 days after the surgery. […] Below are quantitative bar graphs showing the quantitation of the percentage of the positive area for each corresponding stain. *, P<0.05; **, P<0.01; *** P<0.001; a mouse sample size n≥6/group.
FIG. 7 depicts that the intraperitoneal injection of the purified human AGGF1 protein, dependent on the RDD sequence, attenuates a TAC-induced ascending aortic TGF-β1 maturation and a signaling pathway, as well as the ERK1/2 signaling pathway. The RCAs are harvested after 21 days for the western blot analysis. […] The β-actin serves as a loading control. […] The β-actin serves as a loading control. *, P<0.05; **, P<0.01; ***, P<0.001; sample size n=4/group.
The research team obtained blood vessel samples from the thoracic aorta of 8 normal individuals and 8 patients with the thoracic aortic aneurysm from the hospital. […] Subsequently, the research divided C57BL/6 mice into 6 groups: after sham surgery, they were divided into a buffer group, an AGGF1 group, and an AGGF1-RDD^del group (Sham+buffer, Sham+AGGF1, Sham+AGGF1-RDD^del), and after the TAC surgery, they were divided into a buffer group, an AGGF1 group, and an AGGF1-RDD^del group (TAC+buffer, TAC+AGGF1, TAC+AGGF1-RDD^del), with each group having mice ≥6. Buffer was protein elution solution. 21 days after the TAC surgery, Doppler ultrasound was used to detect vascular luminal diameter, and carotid artery and aorta were collected for histological staining and Western blot to evaluate the effect of AGGF1. Starting from the second day after the surgery, recombinant AGGF1 protein or AGGF1-RDD^del protein was administered through intraperitoneal injection in the mice, with the same dose of EB as control, once every 2 days for 3 weeks. The protein dosage was 0.5 mg/kg.

[1] = after TAC vs buffer, 0.5 mg/kg i.p. once every 2 days for 3 weeks, day 21
[2] = after TAC, 0.5 mg/kg i.p., day 21
[3] = regardless of sham or TAC surgery, 0.5 mg/kg i.p.

B1: AGGF1 protein: recombinant human AGGF1 protein with His tag, SEQ ID NO:1, expressed from pet28-AGGF1 in Escherichia coli BL21 (DE3) (protein, listed as Homo sapiens)
chain: MASEAPSPPRSPPPPTSPEPELAQLRRKVEKLERELRSCKRQVREIEKLLHHTERLYQNAESNNQELRTQVEELSKILQRGRNEDNKKSDVEVQTENHAPWSISDYFYQTYYNDVSLPNKVTELSDQQDQAIETSILNSKDHLQVENDAYPGTDRTENVKYRQVDHFASNSQEPASALATEDTSLEGSSLAESLRAAAEAAVSQTGFSYDENTGLYFDHSTGFYYDSENQLYYDPSTGIYYYCDVESGRYQFHSRVDLQPYPTSSTKQSKDKKLKKKRKDPDSSATNEEKDLNSEDQKAFSVEHTSCNEEENFANMKKKAKIGIHHKNSPPKVTVPTSGNTIESPLHENISNSTSFKDEKIMETDSEPEEGEITDSQTEDSYDEAITSEGNVTAEDSEDEDEDKIWPPCIRVIVIRSPVLQIGSLFIITAVNPATIGREKDMEHTLRIPEVGVSKFHAEIYFDHDLQSYVLVDQGSQNGTIVNGKQILQPKTKCDPYVLEHGDEVKIGETVLSFHIHPGSDTCDGCEPGQVRAHLRLDKKDESFVGPTLSKEEKELERRKELKKIRVKYGLQNTEYEDEKTLKNPKYKDRAGKRREQVGSEGTFQRDDAPASVHSEITDSNKGRKMLEKMGWKKGEGLGKDGGGMKTPIQLQLRRTHAGLGTGKPSSFEDVHLLQNKNKKNWDKARERFTENFPETKPQKDDPGTMPWVKGTLE
modifications: His tag
- ascending aortic expansion (FIG. 5) (TAC, 0.5 mg/kg i.p., day 21): significantly inhibit
- vascular thickening (H&E staining, ascending aorta, FIG. 5) (TAC, 0.5 mg/kg i.p., day 21): significantly inhibit
- vascular expansion (right carotid artery, FIG. 3) [1]: significantly inhibit
- vascular remodeling (right carotid artery, FIG. 3) [1]: significantly inhibit
- vascular inflammation (MCP-1, CD68; right carotid artery, FIG. 4) (after TAC vs buffer, 0.5 mg/kg i.p., day 21): significantly inhibit
- inflammation of the ascending aorta (FIG. 6) [2]: inhibited
- remodeling of the ascending aorta (FIG. 6) [2]: inhibited
- level of the mature TGFβ1 (Western blot, RCA, FIG. 4) [3]: inhibit
- p-ERK1/2 (Western blot, RCA, FIG. 4) [3]: inhibit
- p-Smad3 (Western blot, RCA, FIG. 4) [3]: inhibit
- effect on the carotid artery and aorta (sham group, 0.5 mg/kg i.p. once every 2 days for 3 weeks): little effect
